Target: human transferrin receptor 1 (human) (UniProt P02786)
Assay: Carterra LSA biosensor, 25C; IgG captured on anti-IgG lawn, hTfR1 injected; 1:1 Langmuir fit

Sequence of UniProt P02786 (P02786 89-760 limits assumed): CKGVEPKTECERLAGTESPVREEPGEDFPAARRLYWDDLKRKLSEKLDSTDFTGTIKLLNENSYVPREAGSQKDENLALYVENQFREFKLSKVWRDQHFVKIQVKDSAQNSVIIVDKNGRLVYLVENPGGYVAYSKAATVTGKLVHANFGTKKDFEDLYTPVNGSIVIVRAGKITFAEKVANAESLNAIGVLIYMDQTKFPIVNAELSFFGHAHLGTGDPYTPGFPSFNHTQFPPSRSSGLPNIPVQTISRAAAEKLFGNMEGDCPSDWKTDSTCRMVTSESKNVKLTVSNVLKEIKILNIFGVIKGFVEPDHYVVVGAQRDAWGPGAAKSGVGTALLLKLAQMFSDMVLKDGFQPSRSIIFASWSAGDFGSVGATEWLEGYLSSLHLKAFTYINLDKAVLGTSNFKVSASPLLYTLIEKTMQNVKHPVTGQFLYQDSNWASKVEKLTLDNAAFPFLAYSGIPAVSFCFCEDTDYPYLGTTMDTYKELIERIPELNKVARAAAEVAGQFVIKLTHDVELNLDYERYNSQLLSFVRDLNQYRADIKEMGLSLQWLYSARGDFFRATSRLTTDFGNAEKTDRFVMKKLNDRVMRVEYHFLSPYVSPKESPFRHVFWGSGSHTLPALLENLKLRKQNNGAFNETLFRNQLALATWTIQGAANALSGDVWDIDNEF

Q: For “OKT9 mIgG (known anti-TfR1 antibody, control)”, which Kd is on record?
A: 0.536 nM

Q: What about the kon of the same substance?
A: 774000 M⁻¹ s⁻¹
